Assay results taken from the nanobody polyreactivity screen of Harvey et al. (2022).

Assay: yeast display, Sf9 membrane polyspecificity reagent, FACS + sequencing; frameworks hold sequencing errors
Method in brief: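 Sorting gates, low and high (top ~1%), were placed on anti-HA fluorescence to track expression and on streptavidin fluorescence to track reagent binding. A clone's polyreactivity label is taken from the gate it came out of. The reagent was 10% biotinylated, detergent-solubilized Sf9 membrane, applied for 1 hour at 4 °C to galactose-induced yeast display cells.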

Row | Sequence | polyreactivity (PSR sort gate)
1 | QVQHVESGGVLVQAGGSLRLSCAASGSIFYPNAMGWYRQAPGKERELVAAISSSGGTNYADSVKGRFTISRDNAKNTVYLQMNSLKPEDTAVYYCNARDKVRYRFSRMDYWGQGTQVTVSS | low polyreactivity
2 | QVQLVESGGGLVQAGGSLRLSCAASGGIFYGYAMGWYRQAPGKERELVASISSDDRTNNADSVKGRFTISRDNAKNTVYLQMNSLKPEDTAVYSCNAELGSDTSNFDYWGQGTQVTVSS | low polyreactivity
3 | QVQLVESGGGLVQAGASLRISCAASGYTFYANAMGWYIQAPGKEREFVASITWSGGSTYYADSVKGRFTISRDNAKNTVYLQMNSLKPEDTAVYYCAAESWFKYDYWGQGTQVTLSS | low polyreactivity
4 | QEQLQESGGGLVQAGGSLRLSCAASGIIFDWFFMGWYRQAPGREREFVAAITYGATTNYADSVKGRFTISRDNGKNTVYLQMNSLKPEDSAVYYCAAQHRGVQVTFGEYDYWGQGTQVTVSS | low polyreactivity
5 | QVQLVESGGGLVQAGGSLRLSCADSGYTFSPNAMGWYRQAPGKELELVAAISSAVSTDYADSVKGRFTISRDNAKNTVYLQMNSLKPEDTAVYYCAADDQYRVTLGYDYWGQGTQVTVSS | low polyreactivity
6 | QVQLVESGGGLVQAGGSLRLSCAASGFTFKQNAMGWYRQAPGKERELVAAITRTGASTYYADSVKGRFTISRDNAKNTVYLQMNSLKPEDTAVYYCNAARRGSAYDYWGQGTQVTVSS | high polyreactivity
7 | QVQLVESGGGLVQAGGSLRLSCAASGFICGYNAMGWYRQAPGKERELVASINWSGGRTYYADSVKGRFTISRDNAKITVYLQMNSLKPEHTAVYYCNADGSRRYNYWGQGTQVTVSS | low polyreactivity
8 | QDQLVESGGGLVQAGGSLRLSCAASGFTFYLYAMGWYRQAPGKERELVAAINGGGSSTYYADSVKGRFTISRDNAKTTVYLEMNSLKPEDTAVYYCNAVYYVVYVKEFDYWGQGTQVTVSS | high polyreactivity
9 | QVQLVESWGGLVQAGGSLRLSCAASGIIFRTYAMGWYRQAPWKERELVAAINSDGSTYYADSVKGRFTISRDNAKNTVYLQMNSLKPEDTAVYYCAATYGRSRKDGYWGQGTQVTVSS | high polyreactivity
10 | QVQLVESGGGLVQAGGSLRLSCAASGIIFYYYAMGWYRQAPGKERELVAAINWTGGDTYYADSVKGRFTISRDNAKNTVYLQMNSLKPEDTAVYYCNADSFYSYIYDYWGQGTQVTVSS | low polyreactivity
11 | QVQLVESGGGLVQAGGSLRLSCAASGSTFTTNAMGWYIQAPGKERELVATISGGSTNYADSVKGRFTISRDNAKNTVYLQMNSLKPEDTAVYYCNTDGEVTYDYWGQGTQVTVSS | low polyreactivity
12 | QVQLVESGGGLVQAGGSLRLSCAASGFIFVHNAMGWYRPAPGKERELVAAIRSRGGSTYYADSVKGRFTISRDNAKNTVYLQMNSLKPEDTAVDDCAADGAVVSSSRKFGYWGQGTQVTVSS | low polyreactivity
13 | QVQLVESGGGLVQAGGSLRLSCAASGFTLGRYAMGWYRQAPGKEREFVAAISRGGGSTNYADSVKGRFTISRDNAKNTVYLQMNSLKPEDTAVYYCAADDHTSGYGYWGQGTQVTVSS | high polyreactivity
14 | QVQLVESVGCLVQAGGSLRLSCAASGRIFTSNAMGWYRQAPGKERELVAAITRRGGTTYYADSVKGRFTISRDNSKNTVYFQMNSLNPEDTAVYYCATIITVASWYDYWGQGTQVTVSS | low polyreactivity
15 | QVQLVESGGGLVQAGGSLRLSCAASGRIFIPYVMGWYRQAPGKERELVAVITESGGSTYYADSVKGRFTISRDNAKNTVYLQMNSLKPEDTAVYYCATRYGRGARTYHYYYWGQGTQVTVSS | high polyreactivity
16 | QVQLVESGGGLVQAGGSLRLSCAASGITFAPYAMGRYRQAPGKERELVAAIRGSTTSTYYADSVKGRFTISRDNAKNTVYLQINSLKPEDTAVYYCAAAGWKGLGRFYSWGQGTQVTLSS | high polyreactivity
17 | QVQLVESGGGLVQAGGSLRLSCAASGRTLVYYAMGWYRQAPGKERELVAAISWSGSRTYYADSVKGRFTISRDNAKNTVYLQMNSLKPEDTAVYYCATLTFRTNGTMDYWGQGTQVTVSS | high polyreactivity
18 | QVQLVESGGGLVQAGGSLRLSCAASGRTLNAYAMGWYRQAPGKERELVAAITGDDGSTYYADSVKGRFTISRDNAKNTVYLQMNTLKPEDTAVYYCAAVTFSYDGYDYWGQGTQVTVSS | low polyreactivity
19 | QVQLVESGGRLVQAGGSLRLSCAASGRIFGYYAMGWYRQAPGKERELVAAISSGGNTYYADSVKGRFTISRDNAKNTVYLQMNSLKPEDTAVYYCNEVYVGWQYGYDYWGQGTQVTVSS | low polyreactivity
20 | QVQLVESGGGLVQAGGSLRLSCAASGRTFSFYAMGWYRQAPGNERELVASMSRSGASTYYADSVKGRFTISRDNAKNTVYLQMNSLKPEDTAVYYCAAEWGRRYIYYYWGQGTQVTVSS | high polyreactivity
21 | QVQLVESGGGLVQAGGSLRLSCAASGSTFASNTMGWYRQAPGKERELVAAITQSGGTTYYAESVKGRFTISRDNAKNTVTLQMNSLKPEDTAVYYCATDVGYFYTVVGGYDYWGQGTQVTVSS | low polyreactivity
22 | QVQLVESGGGLVQAGGSLRLSCAASGRIFPYYAMGWYRQAPGKERELVAAINWRGTRTYADSVKGRFTLSRDNAKNTVYLQMNSLKPEDTEVYYCAARTLYFSKYDYWGQGTQVTVSS | high polyreactivity

Row | Sequence | polyreactivity (PSR sort gate)
23 | QVQLVESGGGLVQPGGSLRLSCAASGRIQRYYAMGWYRQAPGKERELVAVITSSDGSTYYADSVKGRFTISRDNAKNTVYLQMNRLKPEDTAVYYCAAAPLWRLASWWDPYRRYDYWGQGTLVTVSS | low polyreactivity
24 | QVQLVESGGCLVQAGVSLRLSCAASGRIFAYYAMGWYRQAPRKERELVAAISRSGVSTYYADSVKGRFTISRDNAKNTVYIQMNSLKPEDTAVYYCAARWRSGFTSGDYWGQGTQVTVSS | low polyreactivity
25 | QVPLVESGGGLVQAGGSLRLSCAASGSIFLLYDMGWYRQAPGKERELVAAITWSGGSTYYADSVKGRFTISRDNAMNSVYLQMNSLKPEDTAVYYCAADEPYPTAYEYWGQGTQVTVSS | low polyreactivity
26 | QVQLVESGGGLVQAGGSLRLSCAASGSIFYENMGWYRQAPGKERELVASISWSGTSTYADSVKGRFTISRDNAKNTVYLQMNSLKPEDTAVYYCAAGKNGYTYSRSYSYGYWGQGTQVTVSS | high polyreactivity
27 | QFQLVESGGGLVQAGGSLRLSCAASGRIFGGYAMGWYRQAPVKERELVAAIRDSGRTYYADSVKGRFTISRDNAKNTVYLQMNSLKQEDTAVYYFAADAHSTYAPFRWYDYCGQGTQVTVSS | low polyreactivity
28 | QDQLVESVGGVVQAGGSLRLSGAASGIIFVAYAMGWYRQAPGKERELVASITYSGGSTNYADSVKGRFTISRDNAKNTVYLQLNSLQPEETAVDYCARDRDPVYASVLWDDYGYWGQGTQVTVSS | low polyreactivity
29 | QVQLVESGGGLVQAGGSLRLSCAASGIIFPEYDMGWYRQAPGKERELVAAITKSDGRTYYADSVKGRFTISRDNAKNTVYLQMNSLKPEDTAVYYCNADPRVVAYLGFDSWGQGTQVTVSS | low polyreactivity
30 | QVQLVESGGGLVQAGGSLRLSCAASASTFAGYVMGWYRPAPGKERELVAAISVSGGSTDYADSVKGRFTISRDNAKNTVYLQMNSLKPEDTAVYYCAAVYVRNQWWRNYYWGQGTQVTVSS | low polyreactivity
31 | QVQLVESGGGLVQAGGSLRLSCAASGIIFLGNAMGWYRQAPGKERELVAAITASGTSTYYADSVKGRFTISRDNAKNTVYLQMNSLKPEDTAVYYCAAQSTWYDYYYWGQGTQVTVSS | low polyreactivity
32 | QVQLVESGGGLVQAGGSLRLSCAASGSIFDFYGMGWYRQAPGKERELVATITGTGGGTYYADSVKGRFTISRDNAKNTVYLQMNSLKPEDTAVYYCAADYPYGYWRGLFYYWGHGTQVTVSS | low polyreactivity
33 | QVQLEDSGRGLFQAGGSLRLSCAASGSNFAHYAMGWYIQAQGKERELVARFSWSGGSTYYADSVKGRFTISRDNAKNTVYLQMNSLKPEDTAVYYCAADHLYWGLEYEPWGQGTQVTVSS | low polyreactivity
34 | QVQLVESGGGLVQAGGSLRLSCAASGSIFGLYAMGWYRQAPGKERELVAAINQSGGSTSYADSVKGRFTISRDNAKNTVYLQMNSLKPEDTAVYYCAAKRSWGATRRAYGRYDYWGQGTQVTVSS | low polyreactivity
35 | QVQLVESGGGLVQAGCSLGLSCAASGRIVDYKAMGWYRQAPGKEWELVATLTSSSVRTHYPDSLKGRFSISRDNAKNTVYLQMNSLNPEDTSVYYWNAAYGPRYPRRYDYWGQGTQVTVSS | low polyreactivity
36 | QVQLVESGGGLVQAGGSLRLSCAASGSIFGYAMGWYRQAPGKERELVAAISFSGVSTYYADSVKGRFTISRDNAKNTVYLQMNSLKPDDTAVYYCATDRFYYRTGYDPYYYWGQGTQVTVSS | low polyreactivity
37 | QVQLVESGGGLGQAGGSLRLSCAASGRIFVDYAMGWYRQAPGKERELVAAINSGGSTNYADSVKGRFTISRDNAKNTVNLQMNSQKPEDTAVYYCNKDTLVYGYVQDYEYWGQGTQVTVSS | low polyreactivity
38 | QVQLVESGGGLVQAGGSLRLSCAASGRTFTAYAMGWYRQAPGKERELVARITSVDSTNYADSVKGRFTISRDNAKNTVYLHMYSLKPDDTAVYYCNATFGYPFVDYDDYWGQVTQVTVSS | low polyreactivity
39 | QVQRVESGGGLVQAGGSLRLSCAASGITFKSYTMGWYRPAPGKERELVAANTASGGTTRYADSVKGRFTISRDNAKKTVYLQMNSLKPEDTAVYYCNALPFRYGKRRGYWGQGTQVTVSS | low polyreactivity
40 | QVQLVESGGGIVQAGGSLRLSCTASGFTFTYYAMGSYRQAPGKERELVAAISWSGGSTYYADSVKGRFTISRDNAKNTVYLQMNSLKPEDTAVYYCNKVGRAIGPYDYWGQGTQVTVSS | high polyreactivity
41 | QVQLVESGGGLVQAGGSLRLSCAASGFIFFSNAMGWYRQAPGKEMELVAAISRIGVSTYYADSLKGRFTISRDNAKNTVYLQMKSLKPEYTAVYYCNKSNPDYDGLAIHAFDYWGQGTQVTVSS | low polyreactivity
42 | QVQLVESRGGLVQAGGSLRLSCATSGRIFAKYAMGWYRQAPGKESELVAAITTTGRTYYADSVKGRFTISRDNAKNTVYLQMNSLKPEDTAVYYCAVGYHAPKVSTSDARYDYWGQGTQVTVSS | low polyreactivity
43 | QVQLVESGGGLVQAGGSLRLSCAASGLTFNTYAMGWYRQAPGKERELVAAITKGGGRTYYADSVKGRFTISRDNAKNTVYLQMNSLKPEDTAVYYCAAYGYIYRVGYANGVVTSQDDYWGQGTQVTVSS | high polyreactivity
